Test results taken from article PMC10560287.

Target: GmILPA1-cYFP (soybean (Glycine max))
Experiment: split reporter (BiFC, NanoBiT); BiFC with nYFP and cYFP fusions co-infiltrated into N. benthamiana leaves together with P19; confocal microscopy; leaves in white light or exposed to 1 h of UV-B (21 μmol m^-2 s^-1)

Sequence of GmILPA1-cYFP (soybean (Glycine max)) (main, as listed by the source): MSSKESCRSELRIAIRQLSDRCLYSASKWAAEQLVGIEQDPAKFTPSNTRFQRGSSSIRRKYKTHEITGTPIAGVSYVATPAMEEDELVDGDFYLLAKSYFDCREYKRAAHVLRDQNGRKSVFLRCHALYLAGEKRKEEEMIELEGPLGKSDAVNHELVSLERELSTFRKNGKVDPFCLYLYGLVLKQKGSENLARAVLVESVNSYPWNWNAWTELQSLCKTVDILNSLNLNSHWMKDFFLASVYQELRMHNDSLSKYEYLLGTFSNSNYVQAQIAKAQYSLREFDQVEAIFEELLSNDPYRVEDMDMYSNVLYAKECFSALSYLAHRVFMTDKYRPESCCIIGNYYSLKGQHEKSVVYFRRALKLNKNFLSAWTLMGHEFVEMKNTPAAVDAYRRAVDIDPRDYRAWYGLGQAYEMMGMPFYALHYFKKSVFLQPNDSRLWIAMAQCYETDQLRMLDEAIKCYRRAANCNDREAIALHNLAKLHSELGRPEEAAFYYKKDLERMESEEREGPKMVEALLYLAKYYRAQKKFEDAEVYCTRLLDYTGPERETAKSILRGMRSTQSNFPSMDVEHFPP

fold change of the relative BiFC fluorescence intensity in the cytoplasm, UV-B against white light: 3 fold
Substance: GmGA2ox-like-nYFP (enzyme)
